# In patent US10597433B2, “Peptides and combination of peptides for use in immunotherapy against small cell lung cancer and other cancers” (Immatics Biotechnologies GmbH, priority 2015, dated 2020):
# Target: HLA-A*02:01 (Homo sapiens, UniProt P04439, D140Y/D185E/D98H/E176V/E277Q/G131W/G231S/I119V/I121R/I166T/I218V/L300P/L318F/N151K/N90K/P208A/P217A/Q86G/Q94H/R138H/R169H/T345S)
# Test: MHC binding assay: UV-ligand exchange with ELISA detection of β2m of stabilized MHC complexes
# Details: binding to HLA-A*02:01
# Source text: Candidate peptides for T cell based therapies according to the present invention were further tested for their MHC binding capacity (affinity). The individual peptide-MHC complexes were produced by UV-ligand exchange, where a UV-sensitive peptide is cleaved upon UV-irradiation, and exchanged with the peptide of interest as analyzed. Only peptide candidates that can effectively bind and stabilize the peptide-receptive MHC molecules prevent dissociation of the MHC complexes. To determine the yield of the exchange reaction, an ELISA was performed based on the detection of the light chain (β2m) of stabilized MHC complexes. The assay was performed as generally described in Rodenko et al. (Rodenko et al., 2006).
# 96 well MAXISorp plates (NUNC) were coated over night with 2 μg/ml streptavidin in PBS at room temperature, washed 4× and blocked for 1 h at 37° C. in 2% BSA containing blocking buffer. Refolded HLA-A*02:01/MLA-001 monomers served as standards, covering the range of 15-500 ng/ml. Peptide-MHC monomers of the UV-exchange reaction were diluted 100 fold in blocking buffer. Samples were incubated for 1 h at 37° C., washed four times, incubated with 2 μg/ml HRP conjugated anti-β2m for 1 h at 37° C., washed again and detected with TMB solution that is stopped with […]. Absorption was measured at 450 nm. Candidate peptides that show a high exchange yield (preferably higher than 50%, most preferred higher than 75%) are generally preferred for a generation and production of antibodies or fragments thereof, and/or T cell receptors or fragments thereof, as they show sufficient avidity to the MHC molecules and prevent dissociation of the MHC complexes.
row,Substance,"Peptide exchange (MHC class I binding score, peptide exchange yield)"
1,71 (FIFEQVQNV; listed as Homo sapiens) [compound 71],+++ (≥50 = +++)
2,49 (RLALNTPKV; listed as Homo sapiens) [compound 49],++ (≥20% = ++)
3,20 (MLDEILLQL; listed as Homo sapiens) [compound 20],+++ (≥50 = +++)
4,50 (FLLSQIVAL; listed as Homo sapiens) [compound 50],+++ (≥50 = +++)
5,31 (RLLQDPVGV; listed as Homo sapiens) [compound 31],++++ (≥75% = ++++)
6,72 (KAIGSLKEV; listed as Homo sapiens) [compound 72],+++ (≥50 = +++)
7,54 (HLFDIILTSV; listed as Homo sapiens) [compound 54],++++ (≥75% = ++++)
8,16 (VILDLPLVI; listed as Homo sapiens) [compound 16],+++ (≥50 = +++)
9,36 (RMDGAVTSV; listed as Homo sapiens) [compound 36],+++ (≥50 = +++)
10,53 (LLSEEHITL; listed as Homo sapiens) [compound 53],++++ (≥75% = ++++)
11,1 (AMLEEVNYI; listed as Homo sapiens) [compound 1],+++ (≥50 = +++)
12,14 (ILIETKLVL; listed as Homo sapiens) [compound 14],+++ (≥50 = +++)
13,44 (ALIVGIPSV; listed as Homo sapiens) [compound 44],++++ (≥75% = ++++)
14,46 (ALWVAVPKA; listed as Homo sapiens) [compound 46],+++ (≥50 = +++)
15,67 (MLYDIVPVV; listed as Homo sapiens) [compound 67],+++ (≥50 = +++)
16,73 (SLSSYTPDV; listed as Homo sapiens) [compound 73],+++ (≥50 = +++)
17,66 (YLNLISTSV; listed as Homo sapiens) [compound 66],+++ (≥50 = +++)
18,43 (YLWSEVFSM; listed as Homo sapiens) [compound 43],+++ (≥50 = +++)
19,37 (SLFYNELHYV; listed as Homo sapiens) [compound 37],+++ (≥50 = +++)
20,60 (VVSGATETL; listed as Homo sapiens) [compound 60],++++ (≥75% = ++++)
21,69 (KLFDRSVDL; listed as Homo sapiens) [compound 69],++ (≥20% = ++)
22,7 (GLLGDIAIHL; listed as Homo sapiens) [compound 7],+++ (≥50 = +++)
23,62 (VMLPIGAVVMV; listed as Homo sapiens) [compound 62],+++ (≥50 = +++)
24,58 (VLLNINGIDL; listed as Homo sapiens) [compound 58],++++ (≥75% = ++++)
25,59 (VLLSGLTEV; listed as Homo sapiens) [compound 59],++++ (≥75% = ++++)
26,75 (SLDLHVPSL; listed as Homo sapiens) [compound 75],+++ (≥50 = +++)
27,25 (GLSETILAV; listed as Homo sapiens) [compound 25],++++ (≥75% = ++++)
28,34 (LVFEGIMEV; listed as Homo sapiens) [compound 34],+++ (≥50 = +++)

# The next lines start with the values.
row,"Peptide exchange (MHC class I binding score, peptide exchange yield)",Substance
1,+++ (≥50 = +++),125 (LLSEPSLLRTV; listed as Homo sapiens) [compound 125]
2,++++ (≥75% = ++++),107 (AMYGTKLETI; listed as Homo sapiens) [compound 107]
3,+++ (≥50 = +++),79 (RLLEPAQVQQL; listed as Homo sapiens) [compound 79]
4,++++ (≥75% = ++++),109 (SLFERLVVL; listed as Homo sapiens) [compound 109]
5,+++ (≥50 = +++),121 (YMLEHVITL; listed as Homo sapiens) [compound 121]
6,+++ (≥50 = +++),90 (TLVDNISTMAL; listed as Homo sapiens) [compound 90]
7,+++ (≥50 = +++),85 (FAYDGKDYLTL; listed as Homo sapiens) [compound 85]
8,+++ (≥50 = +++),112 (LLLPGVIKTV; listed as Homo sapiens) [compound 112]
9,++++ (≥75% = ++++),99 (QMLEAIKALEV; listed as Homo sapiens) [compound 99]
10,++++ (≥75% = ++++),108 (ILLDDQFQPKL; listed as Homo sapiens) [compound 108]
11,+++ (≥50 = +++),91 (KLQDGVHII; listed as Homo sapiens) [compound 91]
12,+++ (≥50 = +++),124 (SLITDLQTI; listed as Homo sapiens) [compound 124]
13,+++ (≥50 = +++),94 (ALFPVAEDISL; listed as Homo sapiens) [compound 94]
14,+++ (≥50 = +++),86 (KVIDYVPGI; listed as Homo sapiens) [compound 86]
15,+++ (≥50 = +++),104 (TLIQFTVKL; listed as Homo sapiens) [compound 104]
16,+++ (≥50 = +++),114 (ALLEPGGVLTI; listed as Homo sapiens) [compound 114]
17,+++ (≥50 = +++),115 (ALLPSDCLQEA; listed as Homo sapiens) [compound 115]
18,++++ (≥75% = ++++),78 (RIIDPEDLKALL; listed as Homo sapiens) [compound 78]
19,++++ (≥75% = ++++),117 (FLLDSAPLNV; listed as Homo sapiens) [compound 117]
20,++++ (≥75% = ++++),106 (KMPDDVWLV; listed as Homo sapiens) [compound 106]
